In patent US20090285840A1, “METHODS FOR TREATING PATHOLOGICAL NEOVASCULARIZATION” (New York Society for the Ruptured and Crippled Maintaining …, priority 2008, published 2009):

Tests used:
[1] = system: EphB4; experiment: Alkaline phosphatase shedding assay of transiently expressed EphB4 in mouse embryonic fibroblasts treated with H2O2; assay type: cell-based
Procedure: Stimulation of ADAM9-dependent shedding. […] Alkaline phosphatase shedding assays were performed as described (Weskamp et al., 1996, Cell Biol. 132:717-726; Zheng et al., 2002, J. BioI. Chem. 277:42463-42470) in (mouse embryonic fibroblasts) MEF cells and in pig aortic endothelial cells (PAE cells, kindly provided by Dr. Shahin Rafii). Reactive oxygen species (ROS) assays were performed using a modified version of the procedure reported by Sung et al., 2006, Cancer Res 66:9519-26). Specifically, 20 hours post-transfection, cells maintained at 50-60% culture density were washed twice with OptiMem over the course of 1 hour. […] The resulting supernatants and lysates were collected and assayed in triplicate for alkaline phosphatase activity as described previously (Sahin et al., 2006, “A sensitive method to monitor ectodomain shedding of ligands of the epidermal growth factor receptor,” In Epidermal Growth Factor: Methods and Protocols, In P. J. B. and T. B. Patel eds., Vol. 327, p. 99-113., Humana Press Inc., Totowa, N.J.; Sahin et al., J. Cell Biol. 164:769779; Zheng et al., 2002, J. BioI. Chem. 277:42463-42470). All data presented here representative example from at least three independent assays.
The shedding of EphB4 from Adam9 −/− cells could be rescued by transfection with ADAM9, however, the resulting activity could not be further enhanced by treatment with H2O2. […]

[2] = system: ADAM9; experiment: ADAM9 expression in mouse embryonic fibroblasts treated with H2O2 (immunoblot); assay type: cell-based; settings: MEF cells from wildtype mice, H2O2 200 μM (highest concentration), 6 hrs
[3] = molecular target: T1, alkaline phosphatase tagged CD34 (amino acids 31-385) (UniProt Q64314)
T1 sequence: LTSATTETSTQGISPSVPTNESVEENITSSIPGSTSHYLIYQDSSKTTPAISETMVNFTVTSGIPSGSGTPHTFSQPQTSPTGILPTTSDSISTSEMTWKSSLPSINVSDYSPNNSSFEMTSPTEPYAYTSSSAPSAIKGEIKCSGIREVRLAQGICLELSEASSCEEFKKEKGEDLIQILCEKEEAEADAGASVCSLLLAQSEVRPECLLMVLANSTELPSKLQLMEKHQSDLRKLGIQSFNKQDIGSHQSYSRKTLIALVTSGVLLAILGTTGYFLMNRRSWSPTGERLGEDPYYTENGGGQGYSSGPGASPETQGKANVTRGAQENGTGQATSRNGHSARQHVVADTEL

[4] = molecular target: alkaline phosphatase tagged CD36 (UniProt P05187)
[5] = molecular target: T2, alkaline phosphatase tagged E-Selectin (amino acids 31-612) (UniProt Q00690)
T2 sequence: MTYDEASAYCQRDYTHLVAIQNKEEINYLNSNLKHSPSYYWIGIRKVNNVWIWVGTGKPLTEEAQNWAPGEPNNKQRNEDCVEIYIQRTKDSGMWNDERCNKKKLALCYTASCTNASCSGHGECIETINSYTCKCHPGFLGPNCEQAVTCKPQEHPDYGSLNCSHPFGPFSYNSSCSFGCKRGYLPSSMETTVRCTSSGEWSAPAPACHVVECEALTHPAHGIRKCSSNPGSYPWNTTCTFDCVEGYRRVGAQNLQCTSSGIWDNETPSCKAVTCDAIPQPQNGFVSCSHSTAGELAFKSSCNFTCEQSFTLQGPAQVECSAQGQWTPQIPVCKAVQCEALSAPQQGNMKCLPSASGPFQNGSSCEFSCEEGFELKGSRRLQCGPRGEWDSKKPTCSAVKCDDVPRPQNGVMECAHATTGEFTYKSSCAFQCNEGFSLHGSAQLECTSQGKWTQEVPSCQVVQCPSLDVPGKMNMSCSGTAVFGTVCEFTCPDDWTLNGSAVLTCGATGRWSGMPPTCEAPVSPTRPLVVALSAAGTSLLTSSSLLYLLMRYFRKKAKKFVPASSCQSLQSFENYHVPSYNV

[6] = molecular target: T3, alkaline phosphatase tagged VCAM-1 (amino acids 28-739) (UniProt P29533)
T3 sequence: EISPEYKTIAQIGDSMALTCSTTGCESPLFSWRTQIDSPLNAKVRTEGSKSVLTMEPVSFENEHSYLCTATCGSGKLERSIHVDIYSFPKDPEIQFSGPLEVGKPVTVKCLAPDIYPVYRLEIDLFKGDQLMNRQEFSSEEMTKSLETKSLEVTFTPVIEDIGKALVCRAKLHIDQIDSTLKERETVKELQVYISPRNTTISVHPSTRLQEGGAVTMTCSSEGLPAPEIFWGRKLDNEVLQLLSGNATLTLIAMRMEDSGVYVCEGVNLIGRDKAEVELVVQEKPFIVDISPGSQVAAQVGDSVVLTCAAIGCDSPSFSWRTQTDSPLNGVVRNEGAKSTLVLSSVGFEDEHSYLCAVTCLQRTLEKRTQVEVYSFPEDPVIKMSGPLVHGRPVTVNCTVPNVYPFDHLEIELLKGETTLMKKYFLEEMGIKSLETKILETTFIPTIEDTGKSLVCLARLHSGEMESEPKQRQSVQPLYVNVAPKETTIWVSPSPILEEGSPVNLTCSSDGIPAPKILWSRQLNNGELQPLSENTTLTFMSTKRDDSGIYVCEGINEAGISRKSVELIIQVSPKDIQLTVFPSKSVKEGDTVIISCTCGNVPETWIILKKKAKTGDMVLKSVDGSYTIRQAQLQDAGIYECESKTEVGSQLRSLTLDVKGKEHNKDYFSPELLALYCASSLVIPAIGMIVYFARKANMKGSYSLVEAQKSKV

[7] = molecular target: alkaline phosphatase tagged FLK-1 (amino acids 605-859) (UniProt P35918)
Sequence of UniProt P35918 (P35918 605-859): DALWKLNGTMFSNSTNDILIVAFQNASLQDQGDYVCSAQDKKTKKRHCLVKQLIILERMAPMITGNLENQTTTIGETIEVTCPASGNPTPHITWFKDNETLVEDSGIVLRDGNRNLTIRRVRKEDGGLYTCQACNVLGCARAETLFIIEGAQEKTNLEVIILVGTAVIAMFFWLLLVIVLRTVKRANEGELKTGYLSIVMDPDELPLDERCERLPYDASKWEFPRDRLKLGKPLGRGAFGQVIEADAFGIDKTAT

[8] = molecular target: alkaline phosphatase tagged CD40 (amino acids 24-278) (UniProt P27512)
Sequence of UniProt P27512 (P27512 24-278): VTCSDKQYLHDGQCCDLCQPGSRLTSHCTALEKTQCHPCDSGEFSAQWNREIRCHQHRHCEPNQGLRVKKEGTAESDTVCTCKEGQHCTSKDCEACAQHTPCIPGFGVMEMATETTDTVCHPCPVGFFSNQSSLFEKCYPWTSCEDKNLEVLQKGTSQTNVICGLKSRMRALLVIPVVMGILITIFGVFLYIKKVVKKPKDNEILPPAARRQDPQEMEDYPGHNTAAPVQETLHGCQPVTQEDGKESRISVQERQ

[9] = molecular target: alkaline phosphatase tagged VE-Cadherin (UniProt P05187)
[10] = molecular target: alkaline phosphatase tagged Tie-2 (amino acids 580-833) (UniProt Q02858)
Sequence of UniProt Q02858 (Q02858 580-833): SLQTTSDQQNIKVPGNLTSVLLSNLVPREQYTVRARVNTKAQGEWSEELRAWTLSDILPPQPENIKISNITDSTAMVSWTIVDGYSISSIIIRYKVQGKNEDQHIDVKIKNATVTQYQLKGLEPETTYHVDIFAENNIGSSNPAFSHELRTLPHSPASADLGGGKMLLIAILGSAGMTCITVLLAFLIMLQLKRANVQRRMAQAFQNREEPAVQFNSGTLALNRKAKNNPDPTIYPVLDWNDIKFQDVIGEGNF

[11] = molecular target: alkaline phosphatase tagged EphB4 (UniProt P05187)
[12] = molecular target: alkaline phosphatase tagged ICAM-1 (amino acids 26-532) (UniProt P13597)
Sequence of UniProt P13597 (P13597 26-532): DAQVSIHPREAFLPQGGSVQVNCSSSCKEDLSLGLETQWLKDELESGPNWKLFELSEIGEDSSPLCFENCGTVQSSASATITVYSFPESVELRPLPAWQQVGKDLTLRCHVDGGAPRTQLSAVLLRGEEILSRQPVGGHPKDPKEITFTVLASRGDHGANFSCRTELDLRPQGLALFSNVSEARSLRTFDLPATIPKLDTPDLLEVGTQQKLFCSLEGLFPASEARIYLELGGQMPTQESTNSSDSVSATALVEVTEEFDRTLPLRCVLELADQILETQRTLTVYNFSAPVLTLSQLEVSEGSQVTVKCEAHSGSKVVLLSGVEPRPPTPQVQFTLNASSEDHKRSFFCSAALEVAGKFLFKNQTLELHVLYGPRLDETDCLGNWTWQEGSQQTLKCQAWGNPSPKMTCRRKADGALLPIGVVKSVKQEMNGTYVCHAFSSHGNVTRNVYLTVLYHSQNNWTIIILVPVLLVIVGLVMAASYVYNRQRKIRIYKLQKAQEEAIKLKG

[13] = molecular target: alkaline phosphatase tagged EphrinB2 (UniProt P05187)

Sequence of ADAM9 (wild type, overexpressed from an expression construct) (Q13443 whole entry): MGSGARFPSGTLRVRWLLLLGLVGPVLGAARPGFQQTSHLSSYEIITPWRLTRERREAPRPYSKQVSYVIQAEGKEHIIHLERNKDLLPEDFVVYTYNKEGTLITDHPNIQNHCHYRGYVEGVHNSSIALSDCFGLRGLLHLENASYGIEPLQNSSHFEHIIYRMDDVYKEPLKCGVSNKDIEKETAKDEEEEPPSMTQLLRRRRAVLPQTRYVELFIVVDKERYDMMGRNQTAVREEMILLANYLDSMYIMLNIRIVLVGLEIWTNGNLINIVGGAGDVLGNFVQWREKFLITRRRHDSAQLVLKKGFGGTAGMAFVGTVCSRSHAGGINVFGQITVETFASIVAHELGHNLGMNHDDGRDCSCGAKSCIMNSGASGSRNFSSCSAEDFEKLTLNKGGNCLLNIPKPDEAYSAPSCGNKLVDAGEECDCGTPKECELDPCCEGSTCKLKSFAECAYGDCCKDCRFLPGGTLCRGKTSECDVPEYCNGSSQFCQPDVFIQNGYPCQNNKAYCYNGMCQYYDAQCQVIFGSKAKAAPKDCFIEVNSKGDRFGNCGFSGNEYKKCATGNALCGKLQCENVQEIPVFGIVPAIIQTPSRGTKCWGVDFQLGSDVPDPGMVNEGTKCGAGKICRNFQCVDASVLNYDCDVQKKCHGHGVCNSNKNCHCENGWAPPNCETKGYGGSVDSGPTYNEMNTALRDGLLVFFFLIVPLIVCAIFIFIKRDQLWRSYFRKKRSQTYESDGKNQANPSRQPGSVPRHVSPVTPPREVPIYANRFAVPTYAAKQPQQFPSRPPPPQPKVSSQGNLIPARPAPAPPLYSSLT

| EphB4 shedding ([1]; Adam9 −/− cells expressing EphB4, 100 or 200 μM H2O2) | shedding of transiently expressed EphB4 ([1]; wt MEF cells, 100 or 200 μM H2O2 for 6 hrs) | Compound | ADAM9 expression [2] | shedding (alkaline phosphatase activity released into the supernatant) [3] | shedding (alkaline phosphatase activity released into the supernatant) [4] | shedding (alkaline phosphatase activity released into the supernatant) [5] | shedding (alkaline phosphatase activity released into the supernatant) [6] | shedding (alkaline phosphatase activity released into the supernatant) [7] | shedding (alkaline phosphatase activity released into the supernatant) [8] | shedding (alkaline phosphatase activity released into the supernatant) [9] | shedding (alkaline phosphatase activity released into the supernatant) [10] | shedding (alkaline phosphatase activity released into the supernatant) [11] | shedding (alkaline phosphatase activity released into the supernatant) [12] | shedding (alkaline phosphatase activity released into the supernatant) [13] |
| --- | --- | --- | --- | --- | --- | --- | --- | --- | --- | --- | --- | --- | --- | --- |
| no increase in EphB4 shedding | strong increase in the shedding | OO [H2O2] | increase in ADAM9 expression | – | – | – | – | – | – | – | – | – | – | – |
| – | – | ADAM9 (wild type, overexpressed from an expression construct) | – | Overexpression of ADAM9 did not increase the shedding of E-selectin, ICAM-1, Ephrin B2, CD34 and CD36 compared to ADAM9 E>A, at least under the conditions used here | Overexpression of ADAM9 did not increase the shedding of E-selectin, ICAM-1, Ephrin B2, CD34 and CD36 compared to ADAM9 E>A, at least under the conditions used here | Overexpression of ADAM9 did not increase the shedding of E-selectin, ICAM-1, Ephrin B2, CD34 and CD36 compared to ADAM9 E>A, at least under the conditions used here | overexpression of ADAM9 increased the shedding of CD40, EphB4, Flk1, Tie-2, VE-cadherin and VCAM compared to cells overexpressing ADAM9 E>A together with these substrates | overexpression of ADAM9 increased the shedding of CD40, EphB4, Flk1, Tie-2, VE-cadherin and VCAM compared to cells overexpressing ADAM9 E>A together with these substrates | overexpression of ADAM9 increased the shedding of CD40, EphB4, Flk1, Tie-2, VE-cadherin and VCAM compared to cells overexpressing ADAM9 E>A together with these substrates | overexpression of ADAM9 increased the shedding of CD40, EphB4, Flk1, Tie-2, VE-cadherin and VCAM compared to cells overexpressing ADAM9 E>A together with these substrates | overexpression of ADAM9 increased the shedding of CD40, EphB4, Flk1, Tie-2, VE-cadherin and VCAM compared to cells overexpressing ADAM9 E>A together with these substrates | overexpression of ADAM9 increased the shedding of CD40, EphB4, Flk1, Tie-2, VE-cadherin and VCAM compared to cells overexpressing ADAM9 E>A together with these substrates | Overexpression of ADAM9 did not increase the shedding of E-selectin, ICAM-1, Ephrin B2, CD34 and CD36 compared to ADAM9 E>A, at least under the conditions used here | Overexpression of ADAM9 did not increase the shedding of E-selectin, ICAM-1, Ephrin B2, CD34 and CD36 compared to ADAM9 E>A, at least under the conditions used here |
